Molecular target: the molecule itself
Experiment: cryo-EM structure

B1: full length human Top2α (1-1531) (enzyme)
chain: MEVSPLQPVNENMQVNKIKKNEDAKKRLSVERIYQKKTQLEHILLRPDTYIGSVELVTQQMWVYDEDVGINYREVTFVPGLYKIFDEILVNAADNKQRDPKMSCIRVTIDPENNLISIWNNGKGIPVVEHKVEKMYVPALIFGQLLTSSNYDDDEKKVTGGRNGYGAKLCNIFSTKFTVETASREYKKMFKQTWMDNMGRAGEMELKPFNGEDYTCITFQPDLSKFKMQSLDKDIVALMVRRAYDIAGSTKDVKVFLNGNKLPVKGFRSYVDMYLKDKLDETGNSLKVIHEQVNHRWEVCLTMSEKGFQQISFVNSIATSKGGRHVDYVADQIVTKLVDVVKKKNKGGVAVKAHQVKNHMWIFVNALIENPTFDSQTKENMTLQPKSFGSTCQLSEKFIKAAIGCGIVESILNWVKFKAQVQLNKKCSAVKHNRIKGIPKLDDANDAGGRNSTECTLILTEGDSAKTLAVSGLGVVGRDKYGVFPLRGKILNVREASHKQIMENAEINNIIKIVGLQYKKNYEDEDSLKTLRYGKIMIMTDQDQDGSHIKGLLINFIHHNWPSLLRHRFLEEFITPIVKVSKNKQEMAFYSLPEFEEWKSSTPNHKKWKVKYYKGLGTSTSKEAKEYFADMKRHRIQFKYSGPEDDAAISLAFSKKQIDDRKEWLTNFMEDRRQRKLLGLPEDYLYGQTTTYLTYNDFINKELILFSNSDNERSIPSMVDGLKPGQRKVLFTCFKRNDKREVKVAQLAGSVAEMSSYHHGEMSLMMTIINLAQNFVGSNNLNLLQPIGQFGTRLHGGKDSASPRYIFTMLSSLARLLFPPKDDHTLKFLYDDNQRVEPEWYIPIIPMVLINGAEGIGTGWSCKIPNFDVREIVNNIRRLMDGEEPLPMLPSYKNFKGTIEELAPNQYVISGEVAILNSTTIEISELPVRTWTQTYKEQVLEPMLNGTEKTPPLITDYREYHTDTTVKFVVKMTEEKLAEAERVGLHKVFKLQTSLTCNSMVLFDHVGCLKKYDTVLDILRDFFELRLKYYGLRKEWLLGMLGAESAKLNNQARFILEKIDGKIIIENKPKKELIKVLIQRGYDSDPVKAWKEAQQKVPDEEENEESDNEKETEKSDSVTDSGPTFNYLLDMPLWYLTKEKKDELCRLRNEKEQELDTLKRKSPSDLWKEDLATFIEELEAVEAKEKQDEQVGLPGKGGKAKGKKTQMAEVLPSPRGQRVIPRITIEMKAEAEKKNKKKIKNENTEGSPQEDGVELEGLKQRLEKKQKREPGTKTKKQTTLAFKPIKKGKKRNPWSDSESDRSSDESNFDVPPRETEPRRAATKTKFTMDLDSDEDFSDFDEKTDDEDFVPSDASPPKTKTSPKLSNKELKPQKSVVSDLEADDVKGSVPLSSSPPATHFPDETEITNPVPKKNVTVKKTAAKSQSSTSTTGAKKRAAPKGTKRDPALNSGVSQKPDPAKTKNRRKRKPSTSDDSDSNFEKIVSKAVTSKKSKGESDDFHMDFDSAVAPRAKSVRAKKPIKYLEESDEDDLF
stoichiometry N: 2

Reference: doi:10.1101/2020.08.23.263558 (bioRxiv, 2020)
